Measured values reported in PMC3078058 (Nature, 2011).

B1: CusB membrane fusion protein (natural protein, Escherichia coli, UniProt P77239 29-407, looked up)
chain: EPPAEKTSTAERKILFWYDPMYPNTRFDKPGKSPFMDMDLVPKYADEESSASGVRIDPTQTQNLGVKTATVTRGPLTFAQSFPANVSYNEYQYAIVQARAAGFIDKVYPLTVGDKVQKGTPLLDLTIPDWVEAQSEYLLLRETGGTATQTEGILERLRLAGMPEADIRRLIATQKIQTRFTLKAPIDGVITAFDLRAGMNIAKDNVVAKIQGMDPVWVTAAIPESIAWLVKDASQFTLTVPARPDKTLTIRKWTLLPGVDAATRTLQLRLEVDNADEALKPGMNAWLQLNTASEPMLLIPSQALIDTGSEQRVITVDADGRFVPKRVAVFQASQGVTALRSGLAEGEKVVSSGLFLIDSEANISGALERMRSESATHAH
B2: CusA inner membrane RND efflux pump (natural protein, Escherichia coli, UniProt P38054 1-1047, looked up)
chain: MIEWIIRRSVANRFLVLMGALFLSIWGTWTIINTPVDALPDLSDVQVIIKTSYPGQAPQIVENQVTYPLTTTMLSVPGAKTVRGFSQFGDSYVYVIFEDGTDPYWARSRVLEYLNQVQGKLPAGVSAELGPDATGVGWIYEYALVDRSGKHDLADLRSLQDWFLKYELKTIPDVAEVASVGGVVKEYQVVIDPQRLAQYGISLAEVKSALDASNQEAGGSSIELAEAEYMVRASGYLQTLDDFNHIVLKASENGVPVYLRDVAKVQIGPEMRRGIAELNGEGEVAGGVVILRSGKNAREVIAAVKDKLETLKSSLPEGVEIVTTYDRSQLIDRAIDNLSGKLLEEFIVVAVVCALFLWHVRSALVAIISLPLGLCIAFIVMHFQGLNANIMSLGGIAIAVGAMVDAAIVMIENAHKRLEEWQHQHPDATLDNKTRWQVITDASVEVGPALFISLLIITLSFIPIFTLEGQEGRLFGPLAFTKTYAMAGAALLAIVVIPILMGYWIRGKIPPESSNPLNRFLIRVYHPLLLKVLHWPKTTLLVAALSVLTVLWPLNKVGGEFLPQINEGDLLYMPSTLPGISAAEAASMLQKTDKLIMSVPEVARVFGKTGKAETATDSAPLEMVETTIQLKPQEQWRPGMTMDKIIEELDNTVRLPGLANLWVPPIRNRIDMLSTGIKSPIGIKVSGTVLADIDAMAEQIEEVARTVPGVASALAERLEGGRYINVEINREKAARYGMTVADVQLFVTSAVGGAMVGETVEGIARYPINLRYPQSWRDSPQALRQLPILTPMKQQITLADVADIKVSTGPSMLKTENARPTSWIYIDARDRDMVSVVHDLQKAIAEKVQLKPGTSVAFSGQFELLERANHKLKLMVPMTLMIIFVLLYLAFRRVGEALLIISSVPFALVGGIWLLWWMGFHLSVATGTGFIALAGVAAEFGVVMLMYLRHAIEAVPSLNNPQTFSEQKLDEALYHGAVLRVRPKAMTVAVIIAGLLPILWGTGAGSEVMSRIAAPMIGGMITAPLLSLFIIPAAYKLMWLHRHRVRK

Columns and labels:
[1] = target: B2; test: ITC
[2] = target: the molecule itself; test: crystal structure

Kd [1] [µM]	Binder	stoichiometry N [2]
5.1 ± 0.3	B1	6
	B2	3
